Values of other authors in article PMC11313252.

Target: EGFR (Homo sapiens) (UniProt P00533)

Kd: 2 nM
Substance: EGF (from UniProt P01133)
